How the values were obtained:
[1] = target: Wild-type TF-FVIIa complex on THP-1 cells (UniProt P13726)
[2] = target: TFLBR-FVIIa complex on THP-1 cells (UniProt P13726)
[3] = target: TF G164A-FVIIa complex on THP-1 cells (UniProt P13726)
[4] = target: Wild-type TF-FVIIa complex on THP-1 cells (UniProt P13726); remark: listed apart in the source
[5] = target: TF S160A-FVIIa complex on THP-1 cells (UniProt P13726)

Km of FX activation by TF-FVIIa on THP-1 cells treated with HgCl2 (100 μM, 5 min) (FVIIa 10 nM, FX 25 to 1000 nM) [1]: 0.137 µM
Km of FX activation by TF-FVIIa on THP-1 cells treated with control vehicle (FVIIa 10 nM, FX 25 to 1000 nM) [1]: 0.187 µM
Km of FX activation by TF-FVIIa on THP-1 cells treated with HgCl2 (100 μM, 5 min) (FVIIa 10 nM, FX 25 to 1000 nM) [2]: 0.223 µM
Km of FX activation by TF-FVIIa on THP-1 cells treated with control vehicle (FVIIa 10 nM, FX 25 to 1000 nM) [2]: 0.196 µM
Km of FX activation by TF-FVIIa on THP-1 cells (Michaelis-Menten kinetics) [3]: 0.191 µM
Km of FX activation by TF-FVIIa on THP-1 cells (Michaelis-Menten kinetics) [4]: 0.134 µM
Km of FX activation by TF-FVIIa on THP-1 cells (Michaelis-Menten kinetics) [5]: 0.117 µM
Substance: Purified human factor X (natural protein)
